B1: EEHEE_rd4_0003 (parent)
chain: KKVTINGVEIKFNNPEEAVKFALELAKRLNLRIEFHGDQIKIE

Variants of: B1
Assay: folding stability dG (cDNA display proteolysis); higher = more stable
Conditions: PBS, room temperature

Variant	folding stability dG
KKVTINGVEIKFNNPEEAVRFALELAKRLNLRIEFHGDQIKIE [K20R]	2.81 kcal/mol
KKVTINGVEIKFNNPEEAVMFALELAKRLNLRIEFHGDQIKIE [K20M]	2.44 kcal/mol
KKVTINGVEIKFNNPEEAVYFALELAKRLNLRIEFHGDQIKIE [K20Y]	2.47 kcal/mol
KKVTINGVEIKFNNPEEAVLFALELAKRLNLRIEFHGDQIKIE [K20L]	2.49 kcal/mol
KKVTINGVEIKFNNPEEAVAFALELAKRLNLRIEFHGDQIKIE [K20A]	2.64 kcal/mol
KKVTINGVEIKFNNPEEAVQFALELAKRLNLRIEFHGDQIKIE [K20Q]	2.44 kcal/mol
KKVTINGVEIKFNNPEEAVEFALELAKRLNLRIEFHGDQIKIE [K20E]	2.28 kcal/mol
KKVTINGVEIKFNNPEEAVIFALELAKRLNLRIEFHGDQIKIE [K20I]	2.38 kcal/mol
KKVTINGVEIKFNNPEEAVPFALELAKRLNLRIEFHGDQIKIE [K20P]	1.69 kcal/mol
KKVTINGVEIKFNNPEEAVFFALELAKRLNLRIEFHGDQIKIE [K20F]	2.51 kcal/mol
KKVTINGVEIKFNNPEEAVVFALELAKRLNLRIEFHGDQIKIE [K20V]	2.2 kcal/mol
KKVTINGVEIKFNNPEEAVGFALELAKRLNLRIEFHGDQIKIE [K20G]	1.77 kcal/mol
KKVTINGVEIKFNNPEEAVNFALELAKRLNLRIEFHGDQIKIE [K20N]	2.13 kcal/mol
KKVTINGVEIKFNNPEEAVDFALELAKRLNLRIEFHGDQIKIE [K20D]	1.93 kcal/mol
KKVTINGVEIKFNNPEEAVTFALELAKRLNLRIEFHGDQIKIE [K20T]	2.24 kcal/mol
KKVTINGVEIKFNNPEEAVHFALELAKRLNLRIEFHGDQIKIE [K20H]	2.2 kcal/mol
KKVTINGVEIKFNNPEEAVCFALELAKRLNLRIEFHGDQIKIE [K20C]	3.78 kcal/mol
KKVTINGVEIKFNNPEEAVSFALELAKRLNLRIEFHGDQIKIE [K20S]	2.24 kcal/mol
KKVTINGVEIKFNNPEEAAKFALELAKRLNLRIEFHGDQIKIE [V19A]	2.19 kcal/mol
KKVTINGVEIKFNNPEEAPKFALELAKRLNLRIEFHGDQIKIE [V19P]	1.04 kcal/mol

Variant	folding stability dG
KKVTINGVEIKFNNPEEAFKFALELAKRLNLRIEFHGDQIKIE [V19F]	2.75 kcal/mol
KKVTINGVEIKFNNPEEAQKFALELAKRLNLRIEFHGDQIKIE [V19Q]	2.06 kcal/mol
KKVTINGVEIKFNNPEEACKFALELAKRLNLRIEFHGDQIKIE [V19C]	3.56 kcal/mol
KKVTINGVEIKFNNPEEAYKFALELAKRLNLRIEFHGDQIKIE [V19Y]	2.85 kcal/mol
KKVTINGVEIKFNNPEEAMKFALELAKRLNLRIEFHGDQIKIE [V19M]	2.94 kcal/mol
KKVTINGVEIKFNNPEEANKFALELAKRLNLRIEFHGDQIKIE [V19N]	1.83 kcal/mol
KKVTINGVEIKFNNPEEALKFALELAKRLNLRIEFHGDQIKIE [V19L]	3.07 kcal/mol
KKVTINGVEIKFNNPEEAGKFALELAKRLNLRIEFHGDQIKIE [V19G]	1.54 kcal/mol
KKVTINGVEIKFNNPEEADKFALELAKRLNLRIEFHGDQIKIE [V19D]	1.61 kcal/mol
KKVTINGVEIKFNNPEEATKFALELAKRLNLRIEFHGDQIKIE [V19T]	2.22 kcal/mol
KKVTINGVEIKFNNPEEASKFALELAKRLNLRIEFHGDQIKIE [V19S]	1.86 kcal/mol
KKVTINGVEIKFNNPEEARKFALELAKRLNLRIEFHGDQIKIE [V19R]	2.5 kcal/mol
KKVTINGVEIKFNNPEEAKKFALELAKRLNLRIEFHGDQIKIE [V19K]	2.33 kcal/mol
KKVTINGVEIKFNNPEEAHKFALELAKRLNLRIEFHGDQIKIE [V19H]	2.21 kcal/mol
KKVTINGVEIKFNNPEEAIKFALELAKRLNLRIEFHGDQIKIE [V19I]	2.9 kcal/mol
KKVTINGVEIKFNNPEEAEKFALELAKRLNLRIEFHGDQIKIE [V19E]	2.04 kcal/mol
KKVTINGVEIKFNNPEEAWKFALELAKRLNLRIEFHGDQIKIE [V19W]	2.98 kcal/mol
KKVTINGVEIKFNNPEEYVKFALELAKRLNLRIEFHGDQIKIE [A18Y]	2.36 kcal/mol
KKVTINGVEIKFNNPEEWVKFALELAKRLNLRIEFHGDQIKIE [A18W]	2.78 kcal/mol
KKVTINGVEIKFNNPEEVVKFALELAKRLNLRIEFHGDQIKIE [A18V]	2.48 kcal/mol

Variant	folding stability dG
KKVTINGVEIKFNNPEERVKFALELAKRLNLRIEFHGDQIKIE [A18R]	1.72 kcal/mol
KKVTINGVEIKFNNPEESVKFALELAKRLNLRIEFHGDQIKIE [A18S]	1.93 kcal/mol
KKVTINGVEIKFNNPEETVKFALELAKRLNLRIEFHGDQIKIE [A18T]	1.88 kcal/mol
KKVTINGVEIKFNNPEEAVKNALELAKRLNLRIEFHGDQIKIE [F21N]	1.27 kcal/mol
KKVTINGVEIKFNNPEEAVKLALELAKRLNLRIEFHGDQIKIE [F21L]	2.03 kcal/mol
KKVTINGVEIKFNNPEEAVKGALELAKRLNLRIEFHGDQIKIE [F21G]	1.16 kcal/mol
KKVTINGVEIKFNNPEEAVKRALELAKRLNLRIEFHGDQIKIE [F21R]	1.76 kcal/mol
KKVTINGVEIKFNNPEEAVKDALELAKRLNLRIEFHGDQIKIE [F21D]	0.978 kcal/mol
KKVTINGVEIKFNNPEEAVKKALELAKRLNLRIEFHGDQIKIE [F21K]	1.66 kcal/mol
KKVTINGVEIKFNNPEEAVKCALELAKRLNLRIEFHGDQIKIE [F21C]	3.19 kcal/mol
KKVTINGVEIKFNNPEEAVKSALELAKRLNLRIEFHGDQIKIE [F21S]	1.47 kcal/mol
KKVTINGVEIKFNNPEEAVKTALELAKRLNLRIEFHGDQIKIE [F21T]	1.56 kcal/mol
KKVTINGVEIKFNNPEEAVKHALELAKRLNLRIEFHGDQIKIE [F21H]	1.52 kcal/mol
KKVTINGVEIKFNNPEEAVKMALELAKRLNLRIEFHGDQIKIE [F21M]	1.88 kcal/mol
KKVTINGVEIKFNNPEEAVKEALELAKRLNLRIEFHGDQIKIE [F21E]	1.35 kcal/mol
KKVTINGVEIKFNNPEEAVKAALELAKRLNLRIEFHGDQIKIE [F21A]	1.85 kcal/mol
KKVTINGVEIKFNNPEEAVKIALELAKRLNLRIEFHGDQIKIE [F21I]	2.03 kcal/mol
KKVTINGVEIKFNNPEEAVKPALELAKRLNLRIEFHGDQIKIE [F21P]	0.505 kcal/mol
KKVTINGVEIKFNNPEEAVKQALELAKRLNLRIEFHGDQIKIE [F21Q]	1.57 kcal/mol
